Experimental data published in PMC7764042.

How the values were obtained:
[1] = molecular target: recombinant human interferon alfa-2b (human) (UniProt P01563); assay: SPR; IFN-α immobilised by amine coupling; S100 proteins as analyte; 25 °C; 10 mM HEPES, 150 mM NaCl, 0.01% TWEEN 20, pH 7.4
Tag7 (Homo sapiens) = Tag7 (Homo sapiens) (UniProt O75594); settings: cited from earlier work
S100P (Homo sapiens) = S100P (Homo sapiens) (UniProt P25815); settings: cited from earlier work
[2] = molecular target: IFNAR2 ECD (Homo sapiens) (UniProt P48551); settings: cited from earlier work

recombinant human S100A1 (from UniProt P23297 2-94) (natural protein)
Kd [1]: > 10000 nM

S100A4 (from UniProt P26447)
Kd (Tag7 (Homo sapiens)): 1 nM

recombinant human S100A4 (from UniProt P26447 1-101) (natural protein)
Kd [1]: > 10000 nM

IFN-β (from UniProt P01574)
Kd (S100P (Homo sapiens)): 0.3 nM
Kd [2]: < 0.1 nM
